Tested on: Escherichia coli TOP10
Assay: shrunken log2 fold change of peptide-encoding DNA abundance (4.5 h post-induction vs induction); higher = less antimicrobial activity (less host growth inhibition)
Details: time post-induction: 4.5 h; library: site-saturation at positions 5, 18, 19, 20
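Note: peptides expressed intracellularly from a pBAD plasmid library in pooled LB shake-flask culture, induced with 0.3% L-arabinose, DNA abundance read by NGS, three biological replicates, DESeq2 with apeglm shrinkage.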

Sequence	shrunken log2 fold change
RRIRVRPPRLPRPRPRPIPAPRP	0.000426
RRIRWRPPRLPRPRPRPMMDPRP	0.000475
RRIRKRPPRLPRPRPRPSFIPRP	-0.262
RRIRIRPPRLPRPRPRPWAAPRP	0.00251
RRIRTRPPRLPRPRPRPDHMPRP	-0.109
RRIRQRPPRLPRPRPRPLKLPRP	-0.017
RRIRYRPPRLPRPRPRPIGCPRP	0.225
RRIRLRPPRLPRPRPRPEGVPRP	0.568
RRIRFRPPRLPRPRPRPLQFPRP	0.0763
RRIRERPPRLPRPRPRPKLYPRP	-0.432
RRIRTRPPRLPRPRPRPWFEPRP	0.647
RRIRERPPRLPRPRPRPTSPPRP	-0.185
RRIRHRPPRLPRPRPRPTCNPRP	-0.411
RRIRARPPRLPRPRPRPAAGPRP	0.78
RRIRMRPPRLPRPRPRPCPFPRP	-0.241
RRIRQRPPRLPRPRPRPSYFPRP	-0.515
RRIRIRPPRLPRPRPRPSPGPRP	-0.552
RRIRRRPPRLPRPRPRPMSEPRP	0.0166
RRIRIRPPRLPRPRPRPWRCPRP	-0.107
RRIRKRPPRLPRPRPRPMHLPRP	-0.0647
RRIRRRPPRLPRPRPRPVWYPRP	0.18
RRIRARPPRLPRPRPRPDTSPRP	0.435
RRIRSRPPRLPRPRPRPIQEPRP	0.000527
RRIRWRPPRLPRPRPRPWNHPRP	-0.0518
RRIRERPPRLPRPRPRPKMMPRP	-0.153

Sequence	shrunken log2 fold change
RRIRTRPPRLPRPRPRPSPSPRP	-0.0444
RRIRMRPPRLPRPRPRPKMHPRP	0.42
RRIRLRPPRLPRPRPRPDPRPRP	0.603
RRIRFRPPRLPRPRPRPDMIPRP	-0.241
RRIRARPPRLPRPRPRPKIMPRP	-0.0664
RRIRYRPPRLPRPRPRPHFQPRP	-0.399
RRIRFRPPRLPRPRPRPDPGPRP	-0.162
RRIRLRPPRLPRPRPRPMKDPRP	-0.111
RRIRVRPPRLPRPRPRPFDRPRP	0.121
RRIRVRPPRLPRPRPRPVEFPRP	0.0286
RRIRCRPPRLPRPRPRPVWNPRP	0.0577
RRIRLRPPRLPRPRPRPRMDPRP	-0.106
RRIRSRPPRLPRPRPRPTALPRP	0.14
RRIRERPPRLPRPRPRPKCFPRP	-0.193
RRIRERPPRLPRPRPRPQLWPRP	0.116
RRIRWRPPRLPRPRPRPGAGPRP	0.796
RRIRLRPPRLPRPRPRPERSPRP	0.293
RRIRLRPPRLPRPRPRPCLAPRP	-0.219
RRIRDRPPRLPRPRPRPNCHPRP	-0.23
RRIRERPPRLPRPRPRPFNMPRP	-0.236
RRIRLRPPRLPRPRPRPPAMPRP	0.42
RRIRMRPPRLPRPRPRPAKLPRP	0.441
RRIRFRPPRLPRPRPRPGECPRP	-0.228
RRIRDRPPRLPRPRPRPHTCPRP	-0.0522
RRIRQRPPRLPRPRPRPRGYPRP	-0.00234

Sequence	shrunken log2 fold change
RRIRRRPPRLPRPRPRPPFVPRP	0.675
RRIRMRPPRLPRPRPRPEGLPRP	0.0151
RRIRCRPPRLPRPRPRPIDSPRP	-0.197
RRIRKRPPRLPRPRPRPSVTPRP	-0.0473
RRIRLRPPRLPRPRPRPGPQPRP	0.228
RRIRGRPPRLPRPRPRPTWHPRP	0.468
RRIRDRPPRLPRPRPRPLCPPRP	-0.00491
RRIRVRPPRLPRPRPRPRTGPRP	-0.0024
RRIRVRPPRLPRPRPRPAVKPRP	0.318
RRIRQRPPRLPRPRPRPQNCPRP	0.0179
RRIRIRPPRLPRPRPRPMNLPRP	-0.152
RRIRSRPPRLPRPRPRPRLGPRP	0.468
RRIRPRPPRLPRPRPRPEMAPRP	0.0664
RRIRARPPRLPRPRPRPRWPPRP	0.666
RRIRNRPPRLPRPRPRPMFDPRP	-0.253
RRIRQRPPRLPRPRPRPPHIPRP	0.213
RRIRSRPPRLPRPRPRPGILPRP	-0.0441
RRIRMRPPRLPRPRPRPDWEPRP	0.382
RRIRWRPPRLPRPRPRPRYRPRP	0.124
RRIRPRPPRLPRPRPRPGACPRP	0.35
RRIRYRPPRLPRPRPRPGLLPRP	0.0178
RRIRERPPRLPRPRPRPEIWPRP	0.417
RRIRRRPPRLPRPRPRPGPYPRP	0.18
RRIRLRPPRLPRPRPRPKEMPRP	0.0765
RRIRQRPPRLPRPRPRPWMHPRP	0.0573

Sequence	shrunken log2 fold change
RRIRSRPPRLPRPRPRPTDTPRP	-0.214
RRIRCRPPRLPRPRPRPVRFPRP	0.262
RRIRNRPPRLPRPRPRPLWHPRP	-0.185
RRIRFRPPRLPRPRPRPASEPRP	0.21
RRIRVRPPRLPRPRPRPRHNPRP	-0.389
RRIRMRPPRLPRPRPRPEAWPRP	2.15
RRIRWRPPRLPRPRPRPTEQPRP	0.357
RRIRWRPPRLPRPRPRPTCCPRP	1.13
RRIRPRPPRLPRPRPRPETEPRP	0.344
RRIRLRPPRLPRPRPRPACHPRP	0.186
RRIRWRPPRLPRPRPRPPCTPRP	0.124
RRIRKRPPRLPRPRPRPNIDPRP	-0.0981
RRIRIRPPRLPRPRPRPANLPRP	-0.584
RRIRRRPPRLPRPRPRPQQCPRP	0.15
RRIRDRPPRLPRPRPRPSKCPRP	-0.317
RRIRFRPPRLPRPRPRPFDRPRP	0.0332
RRIRPRPPRLPRPRPRPNMPPRP	-0.405
RRIRERPPRLPRPRPRPMCGPRP	-0.0439
RRIRIRPPRLPRPRPRPPHFPRP	-0.138
RRIRMRPPRLPRPRPRPGMMPRP	0.185
RRIRIRPPRLPRPRPRPGPLPRP	-0.00626
RRIRERPPRLPRPRPRPWWTPRP	-0.0694
RRIRKRPPRLPRPRPRPCEEPRP	0.56
RRIRKRPPRLPRPRPRPYSWPRP	0.0046
RRIRFRPPRLPRPRPRPAWIPRP	-0.106

Sequence	shrunken log2 fold change
RRIRCRPPRLPRPRPRPVCRPRP	-0.0309
RRIRGRPPRLPRPRPRPHYEPRP	-0.21
RRIRSRPPRLPRPRPRPLFPPRP	-0.00148
RRIRCRPPRLPRPRPRPDIKPRP	-0.336
RRIRDRPPRLPRPRPRPNTRPRP	-0.238
RRIRPRPPRLPRPRPRPDNSPRP	-0.228
RRIRSRPPRLPRPRPRPVTRPRP	-0.538
RRIRQRPPRLPRPRPRPLKHPRP	-0.589
RRIRFRPPRLPRPRPRPAVQPRP	-0.0142
RRIRRRPPRLPRPRPRPYPWPRP	-0.101
RRIRARPPRLPRPRPRPAMRPRP	0.825
RRIRVRPPRLPRPRPRPQWPPRP	0.336
RRIRFRPPRLPRPRPRPPMQPRP	0.115
RRIRGRPPRLPRPRPRPPVKPRP	0.678
RRIRARPPRLPRPRPRPTQCPRP	0.391
RRIRFRPPRLPRPRPRPDYWPRP	-0.142
RRIRPRPPRLPRPRPRPVWMPRP	0.136
RRIRFRPPRLPRPRPRPVGMPRP	0.348
RRIRARPPRLPRPRPRPVAQPRP	0.661
RRIRFRPPRLPRPRPRPAFSPRP	0.049
RRIRFRPPRLPRPRPRPGNIPRP	-0.0525
RRIRKRPPRLPRPRPRPQYVPRP	-0.143
RRIRRRPPRLPRPRPRPLTKPRP	0.132
RRIRSRPPRLPRPRPRPKRSPRP	0.205
RRIRPRPPRLPRPRPRPWVDPRP	0.064

Source: the supplement of paper PMC9112550, “Optimization of the antimicrobial peptide Bac7 by deep mutational scanning” (BMC Biology, 2022)
